Laboratory results published in the supplement of paper PMC9732359.
± gives the uncertainty stated by the source.

Assay: protein stability index of a GFP-peptide fusion (yeast GPS) (PSI 1-4); higher = more stable; sorted into four equal gates, so the index is relative within each strain
Details: pdr5∆
Procedure, shortened: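 Tiled 17-residue yeast protein peptides were fused downstream of GFP in a plasmid that also expresses Cherry, and the pooled library was carried in yeast. Mid-log cultures in leucine-free medium were sorted into four equal gates by GFP/Cherry fluorescence ratio, and plasmids from each gate were PCR-amplified and Illumina-sequenced, with reads assigned to strains by barcodes. The protein stability index for each peptide was each gate's read frequency times its gate number, summed.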

Sequence | protein stability index
ILEHTLFKGTGFNSWEG [PRP8] | 2.41 ± 0.12
ILFELYKIKGRNNSKSV [SRP72] | 1.92 ± 0.061
ILHTKESSNEAKKTIQN [SIR4] | 2.21 ± 0.058
ILKSPHLSKSPADRPQG [SIR4] | 2.51 ± 0.058
ILMGFTLKDNIVVMDCF [RRI1] | 1.97 ± 0.084
ILNDSLIYHLKDCAEVD [IRR1] | 2.28 ± 0.06
ILNELQPNARALERYDE [SMC1] | 3.61 ± 0.11
ILNINNSTSKNTLLQQQ [SWI1] | 2.87 ± 0.08
ILNSIPAAANLDALVDC [YJL039C/NUP192] | 2.72 ± 0.11
ILPDSLNLDSLLVDQKQ [SMD1] | 3.01 ± 0.085
ILQYFEKWISSKNSKLS [SIR3] | 1.48 ± 0.087
ILQYSRTWYESFCGFLL [YJR042W/NUP85] | 1.72 ± 0.049
ILRKPGKDCKLQNLQRI [RRI2] | 3.47 ± 0.14
ILRQRGPGFKFVDLNEK [SRB4] | 1.64 ± 0.076
ILRRQAILRQQQQMANN [GAL11] | 3.02 ± 0.16
ILVGGTLKDYQIKGLQW [SNF2] | 2.83 ± 0.077
ILYGPPGTGKTLLARAV [RPT6] | 3.09 ± 0.23
ILYTSKIVFILDSDSEN [RRI2] | 1.88 ± 0.047
IMFNHARIIRSELLARD [RGR1] | 2.17 ± 0.14
IMLLQLELGSCFSQENI [SIN4] | 1.87 ± 0.047
INAVLVNDNDERAARVV [RPO31] | 3.04 ± 0.13
INGEPSIHVNRVERSSR [RRI1] | 3.01 ± 0.067
INHEDGFIETTELLNIY [RPN3] | 2.93 ± 0.1
INIQKYNNNTIRKLLEK [CSI1] | 2.51 ± 0.17
INKLMEKDFQVNKEIKP [SIR4] | 3.31 ± 0.069

Sequence | protein stability index
INLTKVTQKDICILGIL [CSI1] | 2.83 ± 0.07
INSGTNSANGSSLNGTN [SSN3] | 2.75 ± 0.055
INVVIKASRKSVGLPSK [ECM29] | 1.7 ± 0.074
IPDIGDLPDTEGLELLG [PRP8] | 3.15 ± 0.15
IPHIFYSLHQIRKDPNN [CSE2] | 2.61 ± 0.071
IPPLNKSLAMEHKSQVV [CSN12] | 1.63 ± 0.078
IPSAAFNFFEPIKEAKI [YMR129W/POM152] | 2.27 ± 0.037
IQDTLRTGSQSPPSSSQ [MED7] | 2.91 ± 0.05
IQEFQGNPYIELNQDRL [SNF5] | 3.15 ± 0.07
IQGFYWAVKEGPLAEEP [SNU114] | 1.35 ± 0.086
IQHIAAAMVPFIKFKLI [CDC53] | 2.42 ± 0.043
IQLPASLAATYSMISLQ [ARP9] | 2.01 ± 0.074
IQLQEFLLSAMTMASKS [NSL1] | 1.83 ± 0.1
IQNDEEYDTPALFFDPS [PRP8] | 3.05 ± 0.056
IQRGRILPTDGSAEFNV [RPB7] | 3.05 ± 0.086
IQRLRLLREKQRVRNMR [YOR098C/NUP1] | 1.28 ± 0.086
IRAIRKVISEILTREVQ [RPS1B] | 1.65 ± 0.05
IRGIVKQIVHDSGRGAP [RPL2A] | 1.88 ± 0.065
IRLAKTLKKNNVAVDII [RPN10] | 2.85 ± 0.095
IRPDGRLPHQFRPIEIF [RRP42] | 1.94 ± 0.084
IRRAYLHYIPKYNRYEK [RPS11A] | 1.72 ± 0.064
ISEEETTVKPLFQNVPE [YAR002W/NUP60] | 3.25 ± 0.068
ISEFDSFTDILKSAIRD [RPN12] | 3.15 ± 0.17
ISFVLGVRSNHLRSNIL [SMC1] | 2.16 ± 0.088
ISGDISDMQHIERLLKD [PRE4] | 3.1 ± 0.11

Sequence | protein stability index
ISKKLQFSYLSSTLGID [PCI8] | 1.67 ± 0.054
ISKNPSNGIFYGPSFTK [SIR2] | 3.03 ± 0.054
ISLLALPHSPLWELALA [YML031W/NDC1] | 1.49 ± 0.061
ISNGNLATGPNLTSEIE [YOR098C/NUP1] | 3.39 ± 0.11
ISQPKSMSGRISAKDMG [BRR2] | 3.16 ± 0.055
ISQSQLGKFKNIIASPL [SIN4] | 1.96 ± 0.049
ISSHSHPVSLISFAIYS [RRP42] | 1.62 ± 0.058
ISTHLKTICNLLISDTE [IRR1] | 1.86 ± 0.059
ISTVIEVNREEAIGFIR [SMC3] | 2.65 ± 0.11
ITAVHVKIRATGGTRTK [RPS14A] | 1.63 ± 0.041
ITGEKLDTQLNDLRVSL [SMC1] | 2 ± 0.076
ITHKLTKNDAGSKQILK [BRR2] | 3.43 ± 0.079
ITIQDLLFPKSTIVNLA [DPB4] | 2.71 ± 0.11
ITISIHGKPTKGSSLAS [SSN8] | 2.39 ± 0.086
ITKVPALEFLNTTLQDN [REC8] | 2.7 ± 0.15
ITLALSSNPNSSLHSPT [SRB4] | 2.99 ± 0.055
ITLFVLVSVVEAFIASG [FAS2] | 1.41 ± 0.043
ITMESVHEWEVSKPSLL [PRP8] | 3.29 ± 0.069
ITNDWEQPCVDIISGKI [YJR042W/NUP85] | 3.44 ± 0.066
ITRSFKEPRLVIVTDPR [RPS0A] | 1.89 ± 0.13
IVDTSGRHHQEEELFQE [SRP54] | 3.13 ± 0.043
IVHSSDGHLQFLNDVIP [DLS1] | 2.75 ± 0.077
IVKNAEQHNLVKKGPVR [RPS20] | 3.13 ± 0.066
IVNGTEKVILVQEQLSK [RET1] | 2.22 ± 0.057
IVSKSIEMYVQEASKQY [RPN2] | 2.98 ± 0.1

Sequence | protein stability index
IVSPQSNKPCMGIVQDT [RPO21] | 1.68 ± 0.047
IVTEQPSAEIREAYIEN [SWP82] | 2.88 ± 0.062
IVTPVEKAVEEKPAVKS [RPT3] | 3.07 ± 0.064
IVVLVPKFGVEGLIRLD [DIS3] | 2.41 ± 0.063
IYLSQNELTDAIALAVR [RPN1] | 2.67 ± 0.052
IYRYDEMSNKVLKVDKR [BRR2] | 3.09 ± 0.051
IYYTPAFFHLFASLRVL [YJL039C/NUP192] | 1.71 ± 0.081
KAAGLTAAYARTIGIAV [RPL13A] | 1.46 ± 0.059
KADTDTLLYEQIIQRDK [SNF5] | 3.37 ± 0.11
KAEKTLKSTKHSISEAE [SMC4] | 1.99 ± 0.058
KAEYVDQYDAERDFYHS [RPO31] | 2.97 ± 0.1
KAGKITTIEEIFLHSLP [RPS2] | 2.69 ± 0.12
KAGLMTGGISGDANNRW [SMC1] | 2.31 ± 0.088
KAGRAFHKYRLKRNSWP [RPL2A] | 2.88 ± 0.063
KALDELKPEIEKLTSKS [LRP1] | 2.93 ± 0.077
KARAKKTKKEKGPNEEE [RPN2] | 3.37 ± 0.15
KARFVSKLAEEKIRAAG [RPL28] | 2.66 ± 0.027
KAYVRLTADYDALDIAN [RPL25] | 3.04 ± 0.15
KCKEVGITAVHVKIRAT [RPS14B] | 1.64 ± 0.051
KDERGEGEAKQKRNAHG [ITC1] | 3.69 ± 0.23
KDGETTDANGKTIVTGG [RPO26] | 3.32 ± 0.047
KDIVNISIPKTCDEIQN [REC8] | 2.74 ± 0.056
KDLENAQVEMKSLEEQE [SMC1] | 3.12 ± 0.1
KDLSNYRKTEGIFEKAK [YMR153W/NUP53] | 2.75 ± 0.1

Same assay, conditions: san1∆

Sequence | protein stability index
ILEHTLFKGTGFNSWEG [PRP8] | 3.38 ± 0.13
ILFELYKIKGRNNSKSV [SRP72] | 2.75 ± 0.069
ILHTKESSNEAKKTIQN [SIR4] | 2.73 ± 0.069
